The source of these data is patent publication US20060210473A1.

Experiment [1] has as its target human endoglin (human) (UniProt P17813). Put plainly: cell-based or functional assay.
For experiment [2] the target is unchanged. Put plainly: indirect immunofluorescence, FACS on HUVEC, 10 µg/ml.
Experiment [3] shares this target. Put plainly: FACS on U937; one grade for both antibodies; + is CFI 5-25.
For experiment [4] the target is unchanged. Put plainly: FACS on HUVEC; one grade for both antibodies; ++++ is CFI >100.
Experiment [5] shares this target. Put plainly: FACS on HUVEC, concentration giving half-maximal fluorescence.
For experiment [6] the target is unchanged. Put plainly: FACS on ECV-304; one grade for both antibodies; ++ is CFI 25-50.
Experiment [7] has the same target. The experiment is described as follows: FACS on A375M and T8 melanoma lines; one grade for both antibodies; + is CFI 5-25.
Experiment [8] has the same target. Put plainly: FACS on HT-1080 and SAOS-2 sarcoma lines; one grade for both antibodies; + is CFI 5-25.
The target is the same in experiment [9]. Put plainly: FACS on L-endoglin fibroblast transfectant; one grade for both antibodies; +++ is CFI 50-100.
The target is the same in experiment [10]. The experiment is described as follows: FACS on MDA-MB-231 and SKBR3 breast tumor lines; one grade for both antibodies; + is CFI 5-25.
Experiment [11] shares this target. Put plainly: FACS competition on HUVEC; unlabelled TEC-4 against biotinylated TEC-11 (competitor), ratio 1:1.
For experiment [12] the target is unchanged. The experiment is described as follows: FACS competition on HUVEC; unlabelled TEC-4 against biotinylated TEC-11 (competitor), ratio TEC-11:TEC-4 1:100.
Experiment [13] has the same target. Put plainly: FACS competition on HUVEC; unlabelled TEC-11 against biotinylated TEC-4 (competitor), ratio 1:1.
Experiment [14] shares this target. Put plainly: FACS, 20 µg/ml TEC-11 on the sorted endoglin^hi fraction of postconfluent HUVEC; mean of 2 studies, SD 3.8.
Experiment [15] has the same target. Put plainly: FACS, 20 µg/ml TEC-11 on the sorted endoglin^lo fraction of postconfluent HUVEC; mean of 2 studies, SD 2.4. (Flow cytometry measures light scatter and fluorescence of single cells or particles in a stream.)

A value given as a limit tells only on which side of the number the result lay.

In the experiment with human endoglin (human) [1], TEC-4 (antibody) came in with a complement-mediated lysis of HUVEC (trypan blue) of 48 % lysis. The substance also yielded a specific mean fluorescence intensity (MFI) with human endoglin (human) [2] of 200 MFI. Further, the corrected fluorescence intensity (CFI) in the experiment with human endoglin (human) [3] is 5 to 25 cfi; with human endoglin (human) [4], above 100 cfi; with human endoglin (human) [6] it was 25 to 50 cfi; with human endoglin (human) [7], 5 to 25 cfi; with human endoglin (human) [8], 5 to 25 cfi; in the experiment with human endoglin (human) [9], 50 to 100 cfi. For the same substance, the corrected fluorescence intensity (CFI) in the experiment with human endoglin (human) [10] lay in the range of 5 to 25 cfi. Moreover, the EC50 – broadly, the concentration giving half of the maximal effect – with human endoglin (human) [5] amounted to 4 µg/mL. Besides, the percent blocking was 1% with human endoglin (human) [11] and 20% with human endoglin (human) [12].
TEC-11 (antibody) came in with a complement fixation, relative to TEC-4 with human endoglin (human) [1] of 100 fold. Further, in the experiment with human endoglin (human) [1], the complement-mediated lysis of HUVEC (trypan blue) is 50 % lysis. Further, the specific mean fluorescence intensity (MFI) with human endoglin (human) [2] is 200 MFI. The corrected fluorescence intensity (CFI) with human endoglin (human) [3] was 5 to 25 cfi; in the experiment with human endoglin (human) [4], above 100 cfi; with human endoglin (human) [6], 25 to 50 cfi; in the experiment with human endoglin (human) [7] it was 5 to 25 cfi; with human endoglin (human) [8], 5 to 25 cfi; with human endoglin (human) [9], 50 to 100 cfi. Further, the corrected fluorescence intensity (CFI) with human endoglin (human) [10] was 5 to 25 cfi. For the same substance, the EC50 in the experiment with human endoglin (human) [5] amounted to 0.4 µg/mL. In addition, the percent blocking with human endoglin (human) [13] came to 51%. Also, the MFI is 270 MFI in the experiment with human endoglin (human) [14] and 61.6 MFI with human endoglin (human) [15].
